B1: library; numbered along this chain (parent)
chain: MNIQIGELAKRTACPVVTIRFYEQEGLLPPPGRSRGNFRLYGEEHVERLQFIRHCRSLDMPLSDVRTLLSYRKRPDQDCGEVNMLLDEHIRQVESRIGALLELKHHLVELREACSGARPAQSCGILQGLSDCVCDTRGTTAHPSD

The variants in data set [1] derive from B1. Briefly: sfGFP reporter fluorescence (15 h) (µM FITC); higher = higher leak. As to conditions: library round: Round 1; ligand: none. A digest of the protocol: (§1)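 An Echo normalized PCR-made linear PbrR templates to 5 nM and assembled 1 μL reactions in BL21 Star (DE3) PANOx-SP extract carrying the pPbrR-sfGFP reporter plasmid and 30 μg/mL GamS. Reactions received 1 µM lead chloride, 30 µM zinc acetate or no metal and stood 15 hr at 30 °C. Fluorescence at 485/528 nm (Synergy Neo2) was converted with FITC standard curves made in 50 mM sodium borate pH 8.5. Endpoint sfGFP signal is given in µM FITC, from up to three biological replicates.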

Variants of B1 are the subject of data set [2]. Briefly: sfGFP reporter fluorescence (15 h) (µM FITC); higher = stronger transcriptional activation. As to conditions: library round: Round 1. In short, it runs like this:
as §1

± gives the standard deviation of the averaged measurements.

As for MNIQIGELAKRTACPVVTIRFYEQEGLLPPPGRSRGNFRLYGEEHVERLQFIRHCRSLDMPLSDVRTLLSYRKRPDQDCGEVNMLLDEHIRQVESRIGALLELKHHLVELREACSGARPAQSCGILQGLSDCVCATRGTTAHASD [D135A P143A], the sfGFP reporter fluorescence in data set [1] was 0.0645 ± 0.0011; in data set [2] (ligand: 1 µM Pb), 0.0761 ± 0.0051; in data set [2] (ligand: 30 µM Zn), 0.423 ± 0.016.
The corresponding values for MNIQIGELAKRTACPVVTIRFYEQEGLLPPPGRSRGNFRLYGEEHVERLQFIRHCRSLDMNLSDVRTLLSYRKRPDQDCGEVNMLLDEHIRQVESRIGALLELKHHLVELREACSGARPAQSCGILQGLSDCVVDTRGTTAHPSD [P61N C134V] are 0.095 ± 0.0057, 0.189 ± 0.051 and 1.26 ± 0.21.
As for MNIQIGELAKRTACPVVTIRFYEQEGLLPPPGRSRGNFRLYGEEHVERLQFIRHCRSLDMPLSDVRTLLSYRKRPDQDCGEVTMLLDEHIRQVESRIGALLELKHHCVELREACSGARPAQSCGILQGLSDCVCDTRGTTAHPSD [N83T L107C], the sfGFP reporter fluorescence in data set [1] worked out at 0.1001 ± 0.00064; in data set [2] (ligand: 1 µM Pb) it was 0.518 ± 0.13; in data set [2] (ligand: 30 µM Zn) it was 1.53 ± 0.15.
In the case of MNIQIGELAKRTACPVVTIRFYEQEGLLPPPGRSRGNFRLYGEEHVERLQFIRHCRSLDMDLSKVRTLLSYRKRPDQDCGEVNMLLDEHIRQVESRIGALLELKHHLVELRHACSGARPAQSCGILQGLSDCVCDTRGTTAHPSD [P61D D64K E112H], the sfGFP reporter fluorescence worked out at 0.156 ± 0.0048 in data set [1], 0.345 ± 0.087 in data set [2] (ligand: 1 µM Pb) and 1.36 ± 0.14 in data set [2] (ligand: 30 µM Zn).
On to MNIQIGELAKRTACPVVTIRFYEQEGLLPPPGRSRGNFRLYGEEHVERLQFIRHCRSLDMNLSTVRTLLSYRKRPDQDCGEVNMLLDEHIRQVESRIGALLELKHHLVELREACSGARPAQSCGILQGLSDCVCDTRGTTAHPSD [P61N D64T], for which the values for the sfGFP reporter fluorescence in data set [1], in data set [2] (ligand: 1 µM Pb) and in data set [2] (ligand: 30 µM Zn) were 0.345 ± 0.02, 1.06 ± 0.11 and 3.56 ± 0.13, respectively.
Regarding MNIQIGELAKRTACPVVTIRFYEQEGLLPPPGRSRGNFRLYGEEHVERLQFIRHLRSLDLNLSKVRTLLSYRKRPDQDCGEVNMLLDEHIRQVESRIGALLELKHHLVELREACSGARPAQSCGILQGLSDCVCDTRGTTAHPSD [C55L M60L P61N D64K], the sfGFP reporter fluorescence was 0.071 ± 0.0012 in data set [1], 0.0878 ± 0.0025 in data set [2] (ligand: 1 µM Pb) and 0.382 ± 0.0068 in data set [2] (ligand: 30 µM Zn).
For MNIQIGELAKRTACPVVTIRFYEQEGLLPPPGRSRGNFRLYGEEHVERLQFIRHCRSLDMPLSDVRTLLSYRKRPDQDCGEVNMLLDEHIRQVESRIGALLELKHHLVELREACSGARPAQSCGILQGLSYCVCPTRGTTAHPSD [D131Y D135P] the same measures were 0.0677 ± 0.0011, 0.0826 ± 0.0037 and 0.272 ± 0.021.
Take MNIQIGELAKRTACPVVTIRFYEQEGLLPPPGRSRGNFRLYGEEHVERLQFIRHCRSLDMPLSDVRTLLSYRKRPDQDCGEVNMLLDEHIRQVESRIGALLELKHHLVELREACSGARPAQSCGIIQGLSCCVCDTRGTTAHPSD [L126I D131C]: the sfGFP reporter fluorescence worked out at 0.0635 ± 0.0019 in data set [1], 0.0635 ± 0.0022 in data set [2] (ligand: 1 µM Pb) and 0.0699 ± 0.0022 in data set [2] (ligand: 30 µM Zn).
The corresponding values for MNIQIGELAKRTACPVVTIRFYEQEGLLPPPGRSRGNFRLYGEEHVERLQFIRHCRSLDMPLSSVRTLLSYRKRPDQDCGEVNMLLDEHIRQVESRIGALLELKHHLVHLREACSGARPAQSCGILQGLSDCVCDTRGTTAHPSD [D64S E109H] are 0.0794 ± 0.0043, 0.193 ± 0.0059 and 1 ± 0.12.
As for MNIQIGELAKRTACPVVTIRFYEQEGLLPPPGRSRGNFRLYGEEHVERLQFIRHCRSLDMPLSDVRTLLSYRKRPDQDCGEVNMLLDEHIRQVDSRIGALLELVHHLVELREACSGARPAQSCGILQGLSDCVCDTRGTTAHPSD [E94D K104V], the sfGFP reporter fluorescence was found to be 0.0655 ± 0.0018 in data set [1], 0.101 ± 0.047 in data set [2] (ligand: 1 µM Pb) and 0.352 ± 0.039 in data set [2] (ligand: 30 µM Zn).
MNIQIGELAKRTACPVVTIRFYEQEGLLPPPGRSRGNFRLYGEEHVERLQFIRHCRSLDMPISDVRTLLSYRKRPDQDCGEVNMLLDEHIRQVESRIGALLELVHHLVELREACSGARPAQSCGILQGLSDCVCDTRGTTAHPSD [L62I K104V]: the sfGFP reporter fluorescence in data set [1] came out at 0.072 ± 0.0011; in data set [2] (ligand: 1 µM Pb), 0.109 ± 0.0031; in data set [2] (ligand: 30 µM Zn), 0.417 ± 0.022.
Consider MNIQIGELAKRTACPVVTIRFYEQEGLLPPPGRSRGNFRLYGEEHVERLQFIRHCRSLDMPLSDVRTLLSYRKRPDQDCGEVYMLLDEHIRQVESRIGALLELKHHLVELLEACSGARPAQSCGILQGLSDCVCDTRGTTAHPSD [N83Y R111L], for which the sfGFP reporter fluorescence worked out at 0.06133 ± 0.00056 in data set [1], 0.0694 ± 0.0053 in data set [2] (ligand: 1 µM Pb) and 0.0698 ± 0.0019 in data set [2] (ligand: 30 µM Zn).
With MNIQIGELAKRTACPVVTIRFYEQEGLLPPPGRSRGNFRLYGEEHVERLQFIRHCRSLDMPLSDVRTLLSYRKRPDQDCGEVNMLLDEHIRQVESRIGALLELKHHLVELREACSGARPAQSCGILQLLSDCVEDTRGTTAHPSD [G128L C134E], the results for the sfGFP reporter fluorescence in data set [1], in data set [2] (ligand: 1 µM Pb) and in data set [2] (ligand: 30 µM Zn) were 0.0749 ± 0.0015, 0.135 ± 0.0039 and 1.36 ± 0.11, respectively.
As for MNIQIGELAKRTACPVVTIRFYEQEGLLPPPGRSRGNFRLYGEEHVERLQFIRHCRSLDMPLSDVRTLLSYRKRPDQDCGEVNMLLDEHIRQVESRIGALLELKHHLVELREACSGARPAQSCGILQGLSSCVCDTRGTTAHASD [D131S P143A], the results for the sfGFP reporter fluorescence in data set [1], in data set [2] (ligand: 1 µM Pb) and in data set [2] (ligand: 30 µM Zn) were 0.0606 ± 0.0013, 0.07916 ± 0.00037 and 0.373 ± 0.042, respectively.

For the origin of these results see the supplement of paper PMC12783771.
